Test results as given in paper PMC4374696, “Protease Activity of PprI Facilitates DNA Damage Response: Mn(2+)-Dependence and Substrate Sequence-Specificity of the Proteolytic Reaction”.

T1: DdrO (Deinococcus radiodurans R1 (ATCC 13939), UniProt Q9RRB8 1-131)
T1 sequence: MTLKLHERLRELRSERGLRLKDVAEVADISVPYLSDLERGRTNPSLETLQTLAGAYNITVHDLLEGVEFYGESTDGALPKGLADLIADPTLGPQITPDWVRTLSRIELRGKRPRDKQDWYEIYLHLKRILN

T2: DdrO (Deinococcus radiodurans R1 (ATCC 13939)) (UniProt Q9RRB8)
T2 sequence: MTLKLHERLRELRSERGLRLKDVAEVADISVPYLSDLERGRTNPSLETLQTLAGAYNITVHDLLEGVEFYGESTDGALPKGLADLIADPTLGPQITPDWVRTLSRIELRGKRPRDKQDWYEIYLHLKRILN

B1: minimum DdrO binding sequence of PrecA (21 bp) (dsDNA)
DNA 1: TGTTATGCTGCTAGCAGAAAT
DNA 2: ATTTCTGCTAGCAGCATAACA

Molecular target: T1, DdrO
Test: EMSA; 150 mM NaCl, 20 mM Tris-HCl pH 8.0, 5 mM MgCl2, 1.6 uM DNA, 0-16 uM protein, 30 C; 12% TB-PAGE
Details: protein: recombinant; tags: 6xHis-MBP tag removed by TEV; chain copies: 2; blunt

Row | Molecule | binding result
1 | B1 | binds

Molecular target: T2, DdrO (Deinococcus radiodurans R1 (ATCC 13939))
Test: EMSA
Details: 150 mM NaCl, 20 mM Tris-HCl pH 8.0, 5 mM MgCl2, 1.6 uM DNA, 0-16 uM protein, 30 C; 12% TB-PAGE

Row | Molecule | binding
2 | TACTGCGGTCTGACGATGACCTCGTCCTTATCTGCGGGAGCCTCTATCTGCTCGGCGAACTGCGTCCTTTGCTGCTGGGCGAGCAGTCGGAAGGCCACGAACGCTGGCAATAGCCACAGCAGCGGCCAATTTCTGGTTTCGAAACAGGAATAAGGCAAGTTGACTGCCCTCATTCTGTATTGACCGTAGCAAGGAGCGGTGTTACACT (double strand) [PddrO] | binds
3 | CCCTTGCCATACTGCCTTTATTATGCCCTGAACAGATTAAAAAGGCCAGGGGTAGCACTCTGGCATAAGGAAAACCCAGCTTCGGCGGTCTTTGTGCCTTTGCCAGCTTTCACGGCGAAAGAAACGTCCAGATGACAGTGACACCCAAAGTGCACCCGGCGCCGTTCAGGGCACAGGTGCGGACTACAGTGGGGCCGTGAC (double strand) [PpprA] | binds
4 | CAACCTCACCGGAGTATATGGGAGGACGTAACCAGTGTCTACAGGGTGCGGCCCTGAATGGGATGGGTCAAGGGAAGGTGAGGCGCGCTGCACCTTTCGGCGGACGCCCCAGTGCGCGGAGCAGCCTACCTTGCGATCATGCTGGTGTTTCT (double strand) [PrecA- (no RDRM)] | no binding
5 | TAAAAAGGCCAGGGGTAGCACTCTGGCATAAGGAAAACCCAGCTTCGGCGGTCTTTGTGCCTTTGCCAGCTTTCACGGCGAAAGAAACGTCCAGATGACAGTGACACCCAAAGTGCACCCGGCGCCGTTCAGGGCACAGGTGCGGACTACAGTGGGGCCGTGAC (double strand) [PpprA- (no RDRM)] | no binding
6 | AGGAGCAGTTTCTTCATGAAGCCTCCAGATCAAAGGCGCACGAAGCAGGCCTGCCCCAAAGGAAGGCGGGCCTGCTGGGTTGCGTGACAGCCGGGACGTAAATAATGGCCCCAGGGTAGGGGCGGGCCGGGGGGGTGTCAAGGTACGCAGCGGGGGGCCTCCATGATTCTGCCCACAACGTAAACGCGCTATCCTGGGGAG (double strand) [PrecQ- (no RDRM)] | no binding
7 | GCACTGCGGCTTGCAGCGCCGGGTGACCATGCCCAGCCTCCCTGCTCCAGCGCCCGCCCGCAAACCCGAGCGGCGGCTGTTCGGGCTCTTGCGAATCTGAAGGTCTTGGTGCCCGGCCTCTGCTGGGAGGCGGGACACTGGCACCGGCTTCCCCGATGTG (double strand) [PddrB- (no RDRM)] | no binding
8 | TACTGCGGTCTGACGATGACCTCGTCCTTATCTGCGGGAGCCTCTATCTGCTCGGCGAACTGCGTCCTTTGCTGCTGGGCGAGCAGTCGGAAGGCCACGAACGCTGGCAATAGCCACAGCAGCGGCCAATTTCTGGTTTCGAAACAGGAATAAGGCAAGTTGACTGCCCTCA (double strand) [PddrO- (no RDRM)] | no binding
9 | AGAAACACCAGCATGATCGCAAGGTAGGCTGCTCCGCGCACTGGGGCGTCCGCCGAAAGGTGCAGCGCGCCTCACCTTCCCTTGACCCATCCCATTCAGGGCCGCACCCTGTAGACACTGGTTACGTCCTCCCATATACTCCGGTGAGGTTGTTATGCTGCTAGCAGAAATCATCAGTGTGGGCACG (double strand) [PrecA (recA promoter, RDRM)] | binds
10 | AGTTTAGAACAGAATAACATTACGGTCAAGACATAAAACGCCAGTTGATTAAGGGGAAATGGAGAGGGGTTCGGGGCGGCCCCTGCCTGCTCTGTCGGCCAGCTTTCGGCAGAGTGGGCCCCGGCTCCGGCGCACTGACGCGGGCTAGACCCTCCCGCGCCGCCCTCCACCGCCGCCTCTACCTTCGTCCTATGCCCCG (double strand) [PddrA] | binds
11 | AACGCCAGTTGATTAAGGGGAAATGGAGAGGGGTTCGGGGCGGCCCCTGCCTGCTCTGTCGGCCAGCTTTCGGCAGAGTGGGCCCCGGCTCCGGCGCACTGACGCGGGCTAGACCCTCCCGCGCCGCCCTCCACCGCCGCCTCTACCTTCGTCCTATGCCCCG (double strand) [PddrA- (no RDRM)] | no binding
12 | TAGTAACAAGCAGAGTCAATTATGTCAATGACATAAAAGGCTCAGGCCTTCTTGGTCTTCCACTCCGGGCGGTCCTTGACCACCAGGACGCGGCGGACGTTGTCGCGCAGGCGCAGGCTGCTGGCGATGGCGGTTTCGGGGTTGCCCGAAGCCTTGATGGTGTACATCAGGTAGTAGCCTTCGCGGTCCTTGCCCACCTGG (double strand) [PdrssB] | binds
13 | GCACTGCGGCTTGCAGCGCCGGGTGACCATGCCCAGCCTCCCTGCTCCAGCGCCCGCCCGCAAACCCGAGCGGCGGCTGTTCGGGCTCTTGCGAATCTGAAGGTCTTGGTGCCCGGCCTCTGCTGGGAGGCGGGACACTGGCACCGGCTTCCCCGATGTGTTATGTTATTTACGTAAGGAGGAGGCAGATGTTGCAGATT (double strand) [PddrB] | binds
